The source of these data is patent US20210285960A1.

The target of assay [1] is PL555-PA488 dual-labeled test antibody. Kind of assay: cell-based or functional assay.
Assay [2] deals with Fab488-Fc555 dual-labeled test antibody. Kind of assay: cell-based or functional assay.

For “CA125 TIPS factor (MUC16/CA125), Q8WXI7 1-14451”, the increase in 570 nm emission signal (FRET, 470 nm excitation) in assay [1] was determined as 18%; in assay [2] it was 35%.
